{
  "source": "patent US20220298218A1",
  "about": "(ANTAG THERAPEUTICS, published 2022)",
  "note": "*1 amine or outer side, *2 acyl side, *3 side chain or, on linkers, in order; H or OH if unused. Where no end group is shown, it is not given here. Side-chain parts run from the residue outwards. The star is where a group is joined. C18 diacid = O=C(O)CCCCCCCCCCCCCCCCC(=O)*; γGlu = O=C(O)[C@H](CCC(=O)[*:2])N[*:1]; AEEA = NCCOCCOCC(=O)O",
  "data": [
    {"target": "T1, human GIP receptor (human, UniProt P48546 22-466)", "T1 sequence (looked up)": "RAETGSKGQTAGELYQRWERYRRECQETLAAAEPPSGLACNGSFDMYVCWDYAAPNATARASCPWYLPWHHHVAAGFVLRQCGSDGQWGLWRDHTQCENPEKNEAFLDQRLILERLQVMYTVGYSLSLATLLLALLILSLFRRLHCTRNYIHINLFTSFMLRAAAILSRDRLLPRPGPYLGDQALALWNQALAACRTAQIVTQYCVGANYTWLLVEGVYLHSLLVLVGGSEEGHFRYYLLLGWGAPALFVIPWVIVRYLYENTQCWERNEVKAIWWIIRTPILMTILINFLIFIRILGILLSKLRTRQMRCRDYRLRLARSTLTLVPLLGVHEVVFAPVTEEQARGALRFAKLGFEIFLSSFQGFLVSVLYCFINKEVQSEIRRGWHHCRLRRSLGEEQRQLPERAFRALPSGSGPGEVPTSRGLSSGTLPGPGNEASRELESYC", "assay": "cell-based or functional assay", "units": {"cAMP agonism % Emax": "%", "cAMP antagonism": "nM", "cAMP antagonism % inhib": "%"}, "values": [
      {"binder": "EGTFISDYSIAMDKK([AEEA-AEEA-γGlu-C18 diacid])HQQDFVNWLLAQKPSSGAPPPS-NH2 (N-terminus assumed; SMILES CC[C@H](C)[C@H](NC(=O)[C@H](CO)NC(=O)[C@H](Cc1ccc(O)cc1)NC(=O)[C@H](CC(=O)O)NC(=O)[C@H](CO)NC(=O)[C@@H](NC(=O)[C@H](Cc1ccccc1)NC(=O)[C@@H](NC(=O)CNC(=O)[C@@H](N)CCC(=O)O)[C@@H](C)O)[C@@H](C)CC)C(=O)N[C@@H](C)C(=O)N[C@@H](CCSC)C(=O)N[C@@H](CC(=O)O)C(=O)N[C@@H](CCCCN)C(=O)N[C@@H](CCCCNC(=O)COCCOCCNC(=O)COCCOCCNC(=O)CC[C@H](NC(=O)CCCCCCCCCCCCCCCCC(=O)O)C(=O)O)C(=O)N[C@@H](Cc1c[nH]cn1)C(=O)N[C@@H](CCC(N)=O)C(=O)N[C@@H](CCC(N)=O)C(=O)N[C@@H](CC(=O)O)C(=O)N[C@@H](Cc1ccccc1)C(=O)N[C@H](C(=O)N[C@@H](CC(N)=O)C(=O)N[C@@H](Cc1c[nH]c2ccccc12)C(=O)N[C@@H](CC(C)C)C(=O)N[C@@H](CC(C)C)C(=O)N[C@@H](C)C(=O)N[C@@H](CCC(N)=O)C(=O)N[C@@H](CCCCN)C(=O)N1CCC[C@H]1C(=O)N[C@@H](CO)C(=O)N[C@@H](CO)C(=O)NCC(=O)N[C@@H](C)C(=O)N1CCC[C@H]1C(=O)N1CCC[C@H]1C(=O)N1CCC[C@H]1C(=O)N[C@@H](CO)C(N)=O)C(C)C)", "note": "[AT586]", "cAMP agonism % Emax": 0, "cAMP antagonism": 25.1, "cAMP antagonism % inhib": 80, "cAMP antagonism pIC50": 7.6},
      {"binder": "EGTFISDYSIAMDKIK([AEEA-AEEA-γGlu-C18 diacid])QQDFVNWLLAQKGPSSGAPPPS", "note": "[AT589]", "cAMP agonism % Emax": 0, "cAMP antagonism": 5.84, "cAMP antagonism % inhib": 95, "cAMP antagonism pIC50": 8.2},
      {"binder": "TFISDYSIAMDKIK([AEEA-AEEA-γGlu-C18 diacid])QQDFVNWLLAQKGKKNDW-OH (N-terminus assumed; SMILES CC[C@H](C)[C@H](NC(=O)[C@H](CO)NC(=O)[C@H](Cc1ccc(O)cc1)NC(=O)[C@H](CC(=O)O)NC(=O)[C@H](CO)NC(=O)[C@@H](NC(=O)[C@H](Cc1ccccc1)NC(=O)[C@@H](N)[C@@H](C)O)[C@@H](C)CC)C(=O)N[C@@H](C)C(=O)N[C@@H](CCSC)C(=O)N[C@@H](CC(=O)O)C(=O)N[C@@H](CCCCN)C(=O)N[C@H](C(=O)N[C@@H](CCCCNC(=O)COCCOCCNC(=O)COCCOCCNC(=O)CC[C@H](NC(=O)CCCCCCCCCCCCCCCCC(=O)O)C(=O)O)C(=O)N[C@@H](CCC(N)=O)C(=O)N[C@@H](CCC(N)=O)C(=O)N[C@@H](CC(=O)O)C(=O)N[C@@H](Cc1ccccc1)C(=O)N[C@H](C(=O)N[C@@H](CC(N)=O)C(=O)N[C@@H](Cc1c[nH]c2ccccc12)C(=O)N[C@@H](CC(C)C)C(=O)N[C@@H](CC(C)C)C(=O)N[C@@H](C)C(=O)N[C@@H](CCC(N)=O)C(=O)N[C@@H](CCCCN)C(=O)NCC(=O)N[C@@H](CCCCN)C(=O)N[C@@H](CCCCN)C(=O)N[C@@H](CC(N)=O)C(=O)N[C@@H](CC(=O)O)C(=O)N[C@@H](Cc1c[nH]c2ccccc12)C(=O)O)C(C)C)[C@@H](C)CC)", "note": "[AT563]", "cAMP agonism % Emax": 0, "cAMP antagonism": 4.64, "cAMP antagonism % inhib": 80, "cAMP antagonism pIC50": 8.3},
      {"binder": "EGTFISDYSIAMDKIK([AEEA-AEEA-γGlu-C18 diacid])QQDFVNWLLAQKPSSGAPPPS-NH2 (N-terminus assumed; SMILES CC[C@H](C)[C@H](NC(=O)[C@H](CO)NC(=O)[C@H](Cc1ccc(O)cc1)NC(=O)[C@H](CC(=O)O)NC(=O)[C@H](CO)NC(=O)[C@@H](NC(=O)[C@H](Cc1ccccc1)NC(=O)[C@@H](NC(=O)CNC(=O)[C@@H](N)CCC(=O)O)[C@@H](C)O)[C@@H](C)CC)C(=O)N[C@@H](C)C(=O)N[C@@H](CCSC)C(=O)N[C@@H](CC(=O)O)C(=O)N[C@@H](CCCCN)C(=O)N[C@H](C(=O)N[C@@H](CCCCNC(=O)COCCOCCNC(=O)COCCOCCNC(=O)CC[C@H](NC(=O)CCCCCCCCCCCCCCCCC(=O)O)C(=O)O)C(=O)N[C@@H](CCC(N)=O)C(=O)N[C@@H](CCC(N)=O)C(=O)N[C@@H](CC(=O)O)C(=O)N[C@@H](Cc1ccccc1)C(=O)N[C@H](C(=O)N[C@@H](CC(N)=O)C(=O)N[C@@H](Cc1c[nH]c2ccccc12)C(=O)N[C@@H](CC(C)C)C(=O)N[C@@H](CC(C)C)C(=O)N[C@@H](C)C(=O)N[C@@H](CCC(N)=O)C(=O)N[C@@H](CCCCN)C(=O)N1CCC[C@H]1C(=O)N[C@@H](CO)C(=O)N[C@@H](CO)C(=O)NCC(=O)N[C@@H](C)C(=O)N1CCC[C@H]1C(=O)N1CCC[C@H]1C(=O)N1CCC[C@H]1C(=O)N[C@@H](CO)C(N)=O)C(C)C)[C@@H](C)CC)", "note": "[AT587]", "cAMP agonism % Emax": 0, "cAMP antagonism": 3.98, "cAMP antagonism % inhib": 90, "cAMP antagonism pIC50": 8.4},
      {"binder": "EGTFISDYSIAMDKIK([AEEA-AEEA-γGlu-C18 diacid])QQDFVNWLLAQGPSSGAPPPS-NH2 (N-terminus assumed; SMILES CC[C@H](C)[C@H](NC(=O)[C@H](CO)NC(=O)[C@H](Cc1ccc(O)cc1)NC(=O)[C@H](CC(=O)O)NC(=O)[C@H](CO)NC(=O)[C@@H](NC(=O)[C@H](Cc1ccccc1)NC(=O)[C@@H](NC(=O)CNC(=O)[C@@H](N)CCC(=O)O)[C@@H](C)O)[C@@H](C)CC)C(=O)N[C@@H](C)C(=O)N[C@@H](CCSC)C(=O)N[C@@H](CC(=O)O)C(=O)N[C@@H](CCCCN)C(=O)N[C@H](C(=O)N[C@@H](CCCCNC(=O)COCCOCCNC(=O)COCCOCCNC(=O)CC[C@H](NC(=O)CCCCCCCCCCCCCCCCC(=O)O)C(=O)O)C(=O)N[C@@H](CCC(N)=O)C(=O)N[C@@H](CCC(N)=O)C(=O)N[C@@H](CC(=O)O)C(=O)N[C@@H](Cc1ccccc1)C(=O)N[C@H](C(=O)N[C@@H](CC(N)=O)C(=O)N[C@@H](Cc1c[nH]c2ccccc12)C(=O)N[C@@H](CC(C)C)C(=O)N[C@@H](CC(C)C)C(=O)N[C@@H](C)C(=O)N[C@@H](CCC(N)=O)C(=O)NCC(=O)N1CCC[C@H]1C(=O)N[C@@H](CO)C(=O)N[C@@H](CO)C(=O)NCC(=O)N[C@@H](C)C(=O)N1CCC[C@H]1C(=O)N1CCC[C@H]1C(=O)N1CCC[C@H]1C(=O)N[C@@H](CO)C(N)=O)C(C)C)[C@@H](C)CC)", "note": "[AT590]", "cAMP agonism % Emax": 0, "cAMP antagonism": 5.41, "cAMP antagonism % inhib": 93, "cAMP antagonism pIC50": 8.3},
      {"binder": "EGTFISDYSIAMDKIK([AEEA-AEEA-γGlu-C18 diacid])QQDFVNWLLAQKGPSSGAPPPS-NH2 (N-terminus assumed; SMILES CC[C@H](C)[C@H](NC(=O)[C@H](CO)NC(=O)[C@H](Cc1ccc(O)cc1)NC(=O)[C@H](CC(=O)O)NC(=O)[C@H](CO)NC(=O)[C@@H](NC(=O)[C@H](Cc1ccccc1)NC(=O)[C@@H](NC(=O)CNC(=O)[C@@H](N)CCC(=O)O)[C@@H](C)O)[C@@H](C)CC)C(=O)N[C@@H](C)C(=O)N[C@@H](CCSC)C(=O)N[C@@H](CC(=O)O)C(=O)N[C@@H](CCCCN)C(=O)N[C@H](C(=O)N[C@@H](CCCCNC(=O)COCCOCCNC(=O)COCCOCCNC(=O)CC[C@H](NC(=O)CCCCCCCCCCCCCCCCC(=O)O)C(=O)O)C(=O)N[C@@H](CCC(N)=O)C(=O)N[C@@H](CCC(N)=O)C(=O)N[C@@H](CC(=O)O)C(=O)N[C@@H](Cc1ccccc1)C(=O)N[C@H](C(=O)N[C@@H](CC(N)=O)C(=O)N[C@@H](Cc1c[nH]c2ccccc12)C(=O)N[C@@H](CC(C)C)C(=O)N[C@@H](CC(C)C)C(=O)N[C@@H](C)C(=O)N[C@@H](CCC(N)=O)C(=O)N[C@@H](CCCCN)C(=O)NCC(=O)N1CCC[C@H]1C(=O)N[C@@H](CO)C(=O)N[C@@H](CO)C(=O)NCC(=O)N[C@@H](C)C(=O)N1CCC[C@H]1C(=O)N1CCC[C@H]1C(=O)N1CCC[C@H]1C(=O)N[C@@H](CO)C(N)=O)C(C)C)[C@@H](C)CC)", "note": "[AT588]", "cAMP agonism % Emax": 0, "cAMP antagonism": 23.3, "cAMP antagonism % inhib": 97, "cAMP antagonism pIC50": 7.6}
    ]}
  ]
}
